Target: the molecule itself
Test: SEC-MALS; SEC-MALLS of purified CT5B, performed as described in ref. 18; light scattering and refractive index

B1: recombinant MUC5B COOH-terminus (CT5B; D4-B-C-CK) (domain or fragment, human, UniProt Q9HC84 4955-5762, looked up)
chain: GEVIYNKTDRAGCHFYAVCNQHCDIDRFQGACPTSPPPVSSAPLSSPSPAPGCDNAIPLRQVNETWTLENCTVARCVGDNRVVLLDPKPVANVTCVNKHLPIKVSDPSQPCDFHYECECICSMWGGSHYSTFDGTSYTFRGNCTYVLMREIHARFGNLSLYLDNHYCTASATAAAARCPRALSIHYKSMDIVLTVTMVHGKEEGLILFDQIPVSSGFSKNGVLVSVLGTTTMRVDIPALGVSVTFNGQVFQARLPYSLFHNNTEGQCGTCTNNQRDDCLQRDGTTAASCKDMAKTWLVPDSRKDGCWAPTGTPPTASPAAPVSSTPTPTPCPPQPLCDLMLSQVFAECHNLVPPGPFFNACISDHCRGRLEVPCQSLEAYAELCRARGVCSDWRGATGGLCDLTCPPTKVYKPCGPIQPATCNSRNQSPQLEGMAEGCFCPEDQILFNAHMGICVQACPCVGPDGFPKFPGERWVSNCQSCVCDEGSVSVQCKPLPCDAQGQPPPCNRPGFVTVTRPRAENPCCPETVCVCNTTTCPQSLPVCPPGQESICTQEEGDCCPTFRCRPQLCSYNGTFYGVGATFPGALPCHMCTCLSGDTQDPTVQCQEDACNNTTCPQGFEYKRVAGQCCGECVQTACLTPDGQPVQLNETWVNSHVDNCTVYLCEAEGGVHLLTPQPASCPDVSSCRGSLRKTGCCYSCEEDSCQVRINTTILWHQGCETEVNITFCEGSCPGASKYSAEAQAMQHQCTCCQERRVHEETVPLHCPNGSAILHTYTHVDECGCTPFCVPAPMAPPHTRGFPAQEATAV
modifications: N-glycans (removed by PNGase F; positions not stated)
notes: Present as a mixture of monomers and disulfide-stabilised dimers; the proportions varied between preparations; also called MUC5B COOH-terminal construct; COOH-terminal region of MUC5B
How did the “stoichiometry N” value turn out when B1 was run?
Its value is 2.

Source: article PMC4896102, “Biosynthesis of the polymeric gel-forming mucin MUC5B” (American Journal of Physiology - Lung Cellular and …, 2016)
